From patent US20230203162A1 (NUMAB THERAPEUTICS, published 2023)

B1: PRO2566 (MATCH4) (other)
chain 1: AFELTQSPSSLSASVGDRVTITCQASESINSRLAWYQQKPGQPPKLLIYDASDLTSGVPSRFSGSGSGTDFTLTISSLQPEDFATYYCQGYGGSSTTTFGTGTKLTVLGGGGGSGGGGSGGGGSGGGGSEVQLVESGGGLVQPGGSLRLSCAASGFSLSSYAMNWVRQAPGKGLEWIGHINAGDIAYYATWAKGRFTISRDNSKNTVYLQMNSLRAEDTAVYFCARGAGGFSTGPFKLWGQGTLVTVSSGGGGSGGGGSEVQLVESGGGLVQPGGSLRLSCAASGFSLSSYDMSWVRQAPGKGLAWIGASYASGPTYYASWAKGRFTISRDNSKNTVYLQMNSLRAEDTATYFCARGGWTGTSHSNIWGQGTLVTVSSGGGSGGGSGGGSGQSQLVESGGGLVQPGGSLRLSCAVSGFSLSSYAMGWVRQAPGKCLEYIGYISKIGTTYYASWAKGRFTISKDNSKNTVYLQMNSLRAEDTAVYFCARGSSSGGYLDDGFDPWGQGTLVTVSS
chain 2: ALQMTQSPSSLSARVGDRVTIKCQASQSISNYLAWYQQKPGKPPKFLIYDASDLASGVPSRFSGSGSGRDFTLTISSLQPEDFATYYCQQVYDSNNVENVFGCGTKVTVLGGGGGSGGGGSGGGGSGGGGSQSQLVESGGGLVQPGGSLRLSCAVSGFSLSSYAMGWVRQAPGKCLEYIGYISKIGTTYYASWAKGRFTISKDNSKNTVYLQMNSLRAEDTAVYFCARGSSSGGYLDDGFDPWGQGTLVTVSSGGGGSGGGGSALQMTQSPSSLSARVGDRVTIKCQASQSISNYLAWYQQKPGKPPKFLIYDASDLASGVPSRFSGSGSGRDFTLTISSLQPEDFATYYCQQVYDSNNVENVFGCGTKVTVLGGGSGGSGGSGGSGDIQMTQSPSSLSASVGDRVTITCQSSQSVFSNNYLAWFQQKPGQSPKRLIYSASTLASGVPSRFSGSGSGTDFTLTISSLQPEDFATYYCLGSYACSSADCYVFGTGTKVTVLG
notes: Heterodimer
B2: anti-MSLN scFv PRO1783 (scFv)
scFv: DIQMTQSPSSLSASVGDRVTITCQASQNIYSNLAWYQQKPGKAPKLLIYDASDLASGVPSRFSGSGSGTDFTLTISSLQPEDFATYYCQQVRSSSDIDNPFGTGTKVTVLGGGGGSGGGGSGGGGSGGGGSQVQLVESGGGLVQPGGSLRLSCAASGFSLSSYAMGWVRQAPGKGLEWIGYISTINNTYYASWAKGRFTISRDNSKNTVYLQMNSLRAEDTAVYYCAREIRSGWVDYGFSIWGQGTLVTVSS
notes: also called 54-01-G02-sc01
B3: reference anti-MSLN scFv PRO1795 (scFv)
scFv: DIQMTQSPSSLSASVGDRVTITCQASESIGNYLAWYQQKPGKAPKLLIYSASTLASGVPSRFSGSGSGTDFTLTISSLQPEDFATYYCQSTDYGDSYIFGTGTKVTVLGGGGGSGGGGSGGGGSGGGGSEVQLVESGGGLVQPGGSLRLSCAASGISVSNDYYMCWVRQAPGKGLEWIGCISTYIGNTHYASWAKGRFTISRDNSKNTVYLQMNSLRAEDTAVYYCAKNAGYPGYRYAIDLWGQGTLVTVSS
notes: also called 54-22-H03-sc01

Assays:
[1] = target: human serum albumin (hSA, Sigma-Aldrich A3782) (human, UniProt P02768 25-609); assay: SPR, hSA amine-coupled to CM5, antibody injected, pH 5.5, 1:1 Langmuir
[2] = target: T1, plasma-membranous human MSLN on cell lines (H226, HPAC, H292, OVCAR-3, MeT-5A) (human, UniProt Q13421 296-598); assay: flow cytometry on Met-5A cells, protein L-PE, 4PL fit
T1 construct: whole, on cells; also called human MSLN on H226 cells; mesothelin on target cells

[3] = target: T2, human recombinant CD3ε protein (Sino Biological) (human, UniProt P07766 23-126); assay: SPR, CD3ε amine-coupled to CM5, antibody injected
T2 construct: Bought protein; also called recombinant human CD3ε; human CD3ε

[4] = target: soluble mesothelin (sMSLN); assay: cell-based or functional assay
[5] = target: T1, plasma-membranous human MSLN on cell …; assay: flow cytometry on H226 cells, protein L-PE, 4PL fit
[6] = target: T1, plasma-membranous human MSLN on cell …; assay: flow cytometry on OVCAR-3 cells, protein L-PE, 4PL fit
[7] = target: T3, recombinant human MSLN (purchased from Peprotech) (human, UniProt Q13421 296-598, limits assumed); assay: SPR (Biacore T200), human MSLN; which of the two formats (MSLN immobilized / antibody captured) not given
T3 construct: Bought protein; also called recombinant human mesothelin

[8] = target: T1, plasma-membranous human MSLN on cell …; assay: cell-based or functional assay
[9] = target: T1, plasma-membranous human MSLN on cell …; assay: cELISA on H226 cells, HRP-Protein L
[10] = target: T3, recombinant human MSLN (purchased from …); assay: SPR, MSLN immobilized on CM5, scFv as analyte, 1:1 Langmuir
[11] = target: T4, cynomolgus monkey MSLN on recombinant CHO cell line (cynomolgus monkey); assay: cELISA on CHO cells expressing cynomolgus monkey MSLN, HRP-Protein L
T4 construct: whole, on cells; also called plasma-membranous cynomolgus monkey MSLN

[12] = target: T5, recombinant cynomolgus monkey MSLN (purchased from Sino Biological) (cynomolgus monkey); assay: SPR, cynomolgus MSLN immobilized on CM5, scFv as analyte, 1:1 Langmuir
T5 construct: Bought protein

[13] = target: biotinylated MSLN (human MSLN in the MSLN/MUC16 competition ELISA) (human, UniProt Q13421 296-598, limits assumed, biotinylated); assay: competition ELISA, scFv titrated with biotinylated MSLN; competitor coated MUC16

Binder | EC50 [9] [nM] | rel. EC50 (EC50, Amatuximab/EC50, scFv) [9] [ratio] | rel. Maximum binding (OD450-690 nm, scFv/OD450-690 nm, Amatuximab) [9] [ratio] | Kd [10] [nM] | koff [10] [s⁻¹] | kon [10] [M⁻¹ s⁻¹] | EC50 [11] [nM] | rel. EC50 (EC50, Amatuximab/EC50, scFv) [11] [ratio] | rel. Maximum binding (OD450-690 nm, scFv/OD450-690 nm, Amatuximab) [11] [ratio] | Kd [12] [nM] | koff [12] [s⁻¹] | kon [12] [M⁻¹ s⁻¹] | IC50 [13] [nM] | Maximum inhibition at highest sample conc. [13] [%] | rel. IC50 (IC50, Amatuximab/IC50, scFv) [13] [ratio] | further results
B1 | – | – | – | – | – | – | – | – | – | – | – | – | – | – | – | Kd [1]: 6.89 nM; koff [1]: 0.00399 s⁻¹; kon [1]: 579000 M⁻¹ s⁻¹; EC50 [2]: 0.106 nM; max. binding (MFI) [2]: 12100 MFI; Kd [3]: 2.97 nM; Delta 0-50 ng/mL sMSLN (x-fold change in H226 killing potency) [4]: 3.1 fold; Delta 0-500 ng/mL sMSLN (x-fold change in H226 killing potency) [4]: 14.2 fold; EC50 [5]: 0.564 nM; max. binding (MFI) [5]: 757000 MFI; EC50 [6]: 5.13 nM; max. binding (MFI) [6]: 154000 MFI; Kd [7]: 1.52 nM; koff [7]: 0.000608 s⁻¹; kon [7]: 400000 M⁻¹ s⁻¹; Fold-diff Window (mean Met-5A EC50 / mean H226 EC50) [8]: 436 fold; average mean H226 EC50, cell killing (LDH release) [8]: 0.00609 nM; average mean Met-5A EC50, cell killing (LDH release) [8]: 2.66 nM
B2 | 1.44 | 0.16 | 0.57 | 2.91 | 0.00227 | 780000 | 12 | 0.03 | 0.89 | 30.6 | 0.0527 | 1.72e+06 | 0.5 | 99.2 | 0.03 | –
B3 | 0.25 | 0.98 | 0.71 | 0.321 | 0.000183 | 568000 | 0.76 | 0.7 | 0.81 | 1.08 | 0.0011 | 1.02e+06 | 0.02 | 99 | 0.87 | –
